T1: Cps1 (Mmut-/-;TgMCKMmut)
T1 sequence (Q8C196 39-1500, looked up): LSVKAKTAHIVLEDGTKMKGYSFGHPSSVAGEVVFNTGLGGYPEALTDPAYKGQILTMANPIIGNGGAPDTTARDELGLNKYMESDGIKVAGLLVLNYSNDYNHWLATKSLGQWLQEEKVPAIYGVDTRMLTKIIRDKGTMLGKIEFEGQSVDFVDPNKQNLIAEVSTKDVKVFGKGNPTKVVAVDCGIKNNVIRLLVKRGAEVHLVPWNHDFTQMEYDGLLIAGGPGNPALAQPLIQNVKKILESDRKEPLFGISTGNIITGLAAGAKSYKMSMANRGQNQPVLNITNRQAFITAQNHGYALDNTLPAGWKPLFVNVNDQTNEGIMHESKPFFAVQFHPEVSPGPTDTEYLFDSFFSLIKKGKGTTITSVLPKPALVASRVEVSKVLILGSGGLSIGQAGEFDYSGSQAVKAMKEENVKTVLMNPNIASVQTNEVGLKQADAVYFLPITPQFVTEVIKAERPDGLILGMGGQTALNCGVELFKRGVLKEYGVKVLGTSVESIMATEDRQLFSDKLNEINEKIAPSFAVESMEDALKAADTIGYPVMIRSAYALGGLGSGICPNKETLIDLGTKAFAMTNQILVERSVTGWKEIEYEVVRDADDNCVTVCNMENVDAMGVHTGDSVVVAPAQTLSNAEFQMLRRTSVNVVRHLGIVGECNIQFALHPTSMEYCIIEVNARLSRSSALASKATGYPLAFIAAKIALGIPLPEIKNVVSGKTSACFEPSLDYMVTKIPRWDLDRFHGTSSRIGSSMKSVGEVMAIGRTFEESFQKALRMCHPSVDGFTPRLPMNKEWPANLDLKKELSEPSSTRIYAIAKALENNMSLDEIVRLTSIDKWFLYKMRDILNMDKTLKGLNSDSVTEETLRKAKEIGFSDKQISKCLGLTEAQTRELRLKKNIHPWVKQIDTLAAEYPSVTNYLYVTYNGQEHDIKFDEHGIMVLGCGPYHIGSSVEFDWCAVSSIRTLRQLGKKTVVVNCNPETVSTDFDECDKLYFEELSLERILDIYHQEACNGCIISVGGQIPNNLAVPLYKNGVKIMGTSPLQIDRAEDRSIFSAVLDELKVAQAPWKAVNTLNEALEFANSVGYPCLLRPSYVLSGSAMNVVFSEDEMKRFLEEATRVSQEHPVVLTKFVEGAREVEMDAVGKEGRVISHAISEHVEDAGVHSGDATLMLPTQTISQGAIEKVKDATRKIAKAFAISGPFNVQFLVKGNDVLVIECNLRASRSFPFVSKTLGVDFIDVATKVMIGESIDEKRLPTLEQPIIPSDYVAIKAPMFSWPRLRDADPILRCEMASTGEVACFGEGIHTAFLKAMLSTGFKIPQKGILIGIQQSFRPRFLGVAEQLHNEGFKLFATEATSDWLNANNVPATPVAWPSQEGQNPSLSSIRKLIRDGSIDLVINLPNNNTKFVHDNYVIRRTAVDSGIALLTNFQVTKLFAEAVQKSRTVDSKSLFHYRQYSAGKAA


Columns and labels:
[1] = biological target: methylmalonylated BSA, P02769
[2] = biological target: propionylated BSA, P02769
[3] = biological target: T1, Cps1 (Mmut-/-;TgMCKMmut)

methylmalonylated BSA, P02769, sequence (P02769 25-607): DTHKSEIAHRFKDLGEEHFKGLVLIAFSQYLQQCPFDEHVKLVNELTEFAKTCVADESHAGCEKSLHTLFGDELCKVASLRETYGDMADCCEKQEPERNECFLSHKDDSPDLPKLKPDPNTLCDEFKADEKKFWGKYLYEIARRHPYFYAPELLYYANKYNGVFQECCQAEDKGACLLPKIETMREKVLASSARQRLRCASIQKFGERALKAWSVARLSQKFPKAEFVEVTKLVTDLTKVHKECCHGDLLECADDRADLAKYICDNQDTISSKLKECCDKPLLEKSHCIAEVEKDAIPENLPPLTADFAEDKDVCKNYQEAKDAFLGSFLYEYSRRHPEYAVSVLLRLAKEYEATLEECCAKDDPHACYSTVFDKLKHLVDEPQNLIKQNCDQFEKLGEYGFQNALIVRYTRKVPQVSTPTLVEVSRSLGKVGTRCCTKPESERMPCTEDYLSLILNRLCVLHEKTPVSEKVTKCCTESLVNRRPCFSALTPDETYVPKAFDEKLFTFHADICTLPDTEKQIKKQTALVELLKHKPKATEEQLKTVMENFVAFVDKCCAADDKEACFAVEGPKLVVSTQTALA
propionylated BSA, P02769, sequence (P02769 25-607): as above

| Protein | removal of methylmalonylation from methylmalonylated BSA (in vitro deacylation assay, Western blot) [1] | depropionylation of propionylated BSA (in vitro deacylation assay, Western blot) [2] | stated: methylmalonylation of immunoprecipitated Cps1 reduced (AP42053 immunoblot) [3] |
| --- | --- | --- | --- |
| methylmalonylated K4R mutated SIRT5-FLAG (protein) SSSMADFRKFFAKAKHIVIISGAGVSAESGVPTFRGAGGYWRRWQAQDLATPLAFAHNPSRVWEFYHYRREVMGSREPNAGHRAIAECETRLGKQGRRVVVITQNIDELHRRAGTRNLLEIHGSLFKTRCTSCGVVAENYKSPICPALSGKGAPEPGTQDASIPVEKLPRCEEAGCGGLLRPHVVWFGENLDPAILEEVDRELAHCDLCLVVGTSSVVYPAAMFAPQVAARGVPVAEFNTETTPATNRFRFHFQGPCGTTLPEALACHENETVSEFGGDYKDDDDK | SIRT5 K4R did not exhibit enzymatic inhibition after hyper-methylmalonylation/acylation modifications | – | – |
| propionylated SIRT5-FLAG (protein) SSSMADFRKFFAKAKHIVIISGAGVSAESGVPTFRGAGGYWRKWQAQDLATPLAFAHNPSRVWEFYHYRREVMGSKEPNAGHRAIAECETRLGKQGRRVVVITQNIDELHRKAGTKNLLEIHGSLFKTRCTSCGVVAENYKSPICPALSGKGAPEPGTQDASIPVEKLPRCEEAGCGGLLRPHVVWFGENLDPAILEEVDRELAHCDLCLVVGTSSVVYPAAMFAPQVAARGVPVAEFNTETTPATNRFRFHFQGPCGTTLPEALACHENETVSEFGGDYKDDDDK | – | this activity is impaired when SIRT5 is propionylated | – |
| SIRT5-FLAG (Addgene, 13816) (protein) SSSMADFRKFFAKAKHIVIISGAGVSAESGVPTFRGAGGYWRKWQAQDLATPLAFAHNPSRVWEFYHYRREVMGSKEPNAGHRAIAECETRLGKQGRRVVVITQNIDELHRKAGTKNLLEIHGSLFKTRCTSCGVVAENYKSPICPALSGKGAPEPGTQDASIPVEKLPRCEEAGCGGLLRPHVVWFGENLDPAILEEVDRELAHCDLCLVVGTSSVVYPAAMFAPQVAARGVPVAEFNTETTPATNRFRFHFQGPCGTTLPEALACHENETVSEFGGDYKDDDDK | – | SIRT5 mediates the depropionylation of BSA substrate | – |
| K4R mutated SIRT5-FLAG (protein) SSSMADFRKFFAKAKHIVIISGAGVSAESGVPTFRGAGGYWRRWQAQDLATPLAFAHNPSRVWEFYHYRREVMGSREPNAGHRAIAECETRLGKQGRRVVVITQNIDELHRRAGTRNLLEIHGSLFKTRCTSCGVVAENYKSPICPALSGKGAPEPGTQDASIPVEKLPRCEEAGCGGLLRPHVVWFGENLDPAILEEVDRELAHCDLCLVVGTSSVVYPAAMFAPQVAARGVPVAEFNTETTPATNRFRFHFQGPCGTTLPEALACHENETVSEFGGDYKDDDDK | mutant SIRT5 K4R had the ability to remove methylmalonylation from BSA regardless of whether SIRT5 K4R was acylated or not | – | AP42053 bands at about 150 kDa are faint in the 2 SuperSIRT5-AAV Mmut-/- lanes and clear in the 2 GFP-AAV Mmut-/- lanes, with like Cps1 bands; the FLAG blot of the extracts shows SuperSIRT5-FLAG below 37 kDa only in the SuperSIRT5-AAV lanes |
| FLAG-SIRT1 (Addgene, 1791) (protein) MADEAALALQPGGSPSAAGADREAASSPAGEPLRKRPRRDGPGLERSPGEPGGAAPEREVPAAARGCPGAAAAALWREAEAEAAAAGGEQEAQATAAAGEGDNGPGLQGPSREPPLADNLYDEDDDDEGEEEEEAAAAAIGYRDNLLFGDEIITNGFHSCESDEEDRASHASSSDWTPRPRIGPYTFVQQHLMIGTDPRTILKDLLPETIPPPELDDMTLWQIVINILSEPPKRKKRKDINTIEDAVKLLQECKKIIVLTGAGVSVSCGIPDFRSRDGIYARLAVDFPDLPDPQAMFDIEYFRKDPRPFFKFAKEIYPGQFQPSLCHKFIALSDKEGKLLRNYTQNIDTLEQVAGIQRIIQCHGSFATASCLICKYKVDCEAVRGDIFNQVVPRCPRCPADEPLAIMKPEIVFFGENLPEQFHRAMKYDKDEVDLLIVIGSSLKVRPVALIPSSIPHEVPQILINREPLPHLHFDVELLGDCDVIINELCHRLGGEYAKLCCNPVKLSEITEKPPRTQKELAYLSELPPTPLHVSEDSSSPERTSPPDSSVIVTLLDQAAKSNDDLDVSESKGCMEEKPQEVQTSRNVESIAEQMENPDLKNVGSSTGEKNERTSVAGTVRKCWPNRVAKEQISRRLDGNQYLFLPPNRYIFHGAEVYSDSEDDVLSSSSCGSNSDSGTCQSPSLEEPMEDESEIEEFYNGLEDEPDVPERAGGAGFGTDGDDQEAINEAISVKQEVTDMNYPSNKS | SIRT1 (FIG. 13A) and SIRT5 (FIG. 13B) were the most effective at removing methylmalonylation from the methylmalonylated BSA substrates | – | – |

Reference: US20230181672
